± gives the standard deviation of the averaged measurements.
B1: library; a variant is named by its letters at N, in order (parent)
chain: GCUGUCACCGGUGUAUUACCCUAGUGGUCGACCGGUCUGAUGAGUCUNNNNNNAGACGAAACAGC

Experiments:
[1] = variants of: B1; test: normalized RNA/DNA level with ligand (relative to sTRSVctl = 100) (log10 (% of sTRSVctl)); ligand: hypoxanthine (xanthine aptamer); higher = less ribozyme self-cleavage, higher mRNA level; conditions: ligand concentration (+) RNA-Seq: 5 mM, HEK293T, reporter: mCherry (pCS4076), ligand present: yes
Procedure, shortened: (§1)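 Library plasmids encoding reporter-linked ribozyme switches (mCherry, or eGFP for some folinic acid experiments) were transfected into HEK293T at 4 µg per 6-well well. Ligand, when used, was added 1 h before transfection. Total RNA was extracted with EDTA 72 h later, then reverse-transcribed, amplified, barcoded and sequenced. RNA level was RNA reads over DNA reads, divided by a spiked-in non-cleaving control (or the top 25 sequences), ×100, log10; only sequences with ≥100 DNA reads were kept.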

[2] = variants of: B1; test: normalized RNA/DNA level without ligand (relative to sTRSVctl = 100) (log10 (% of sTRSVctl)); ligand: hypoxanthine (xanthine aptamer); higher = less ribozyme self-cleavage, higher mRNA level; conditions: HEK293T, reporter: mCherry (pCS4076), ligand present: no
Procedure, shortened: as §1

Variant | normalized RNA/DNA level with ligand (log10) [1] | normalized RNA/DNA level without ligand (log10) [2]
GCUGUCACCGGUGUAUUACCCUAGUGGUCGACCGGUCUGAUGAGUCUCUUGAGAGACGAAACAGC [CUUGAG] | 1.87 ± 0.03 | 1.72 ± 0.068
GCUGUCACCGGUGUAUUACCCUAGUGGUCGACCGGUCUGAUGAGUCUUUAAGUAGACGAAACAGC [UUAAGU] | 1.936 ± 0.0026 | 1.847 ± 0.0087
GCUGUCACCGGUGUAUUACCCUAGUGGUCGACCGGUCUGAUGAGUCUAGUUCGAGACGAAACAGC [AGUUCG] | 1.857 ± 0.017 | 1.43 ± 0.021
GCUGUCACCGGUGUAUUACCCUAGUGGUCGACCGGUCUGAUGAGUCUUGGCUAAGACGAAACAGC [UGGCUA] | 2.009 ± 0.006 | 1.942 ± 0.011
GCUGUCACCGGUGUAUUACCCUAGUGGUCGACCGGUCUGAUGAGUCUAAUUCCAGACGAAACAGC [AAUUCC] | 1.98 ± 0.039 | 1.9 ± 0.027
GCUGUCACCGGUGUAUUACCCUAGUGGUCGACCGGUCUGAUGAGUCUGGACGUAGACGAAACAGC [GGACGU] | 1.887 ± 0.013 | 1.814 ± 0.0056
GCUGUCACCGGUGUAUUACCCUAGUGGUCGACCGGUCUGAUGAGUCUCCGAUGAGACGAAACAGC [CCGAUG] | 1.82 ± 0.064 | 1.42 ± 0.049
GCUGUCACCGGUGUAUUACCCUAGUGGUCGACCGGUCUGAUGAGUCUCAGAUCAGACGAAACAGC [CAGAUC] | 1.98 ± 0.089 | 1.91 ± 0.032
GCUGUCACCGGUGUAUUACCCUAGUGGUCGACCGGUCUGAUGAGUCUUUUCAAAGACGAAACAGC [UUUCAA] | 1.9299 ± 0.00082 | 1.866 ± 0.015
GCUGUCACCGGUGUAUUACCCUAGUGGUCGACCGGUCUGAUGAGUCUGGGGUGAGACGAAACAGC [GGGGUG] | 1.95 ± 0.027 | 1.562 ± 0.0074
GCUGUCACCGGUGUAUUACCCUAGUGGUCGACCGGUCUGAUGAGUCUAGAACAAGACGAAACAGC [AGAACA] | 1.91 ± 0.044 | 1.799 ± 0.0065
GCUGUCACCGGUGUAUUACCCUAGUGGUCGACCGGUCUGAUGAGUCUGCUAGGAGACGAAACAGC [GCUAGG] | 1.83 ± 0.039 | 1.48 ± 0.02
GCUGUCACCGGUGUAUUACCCUAGUGGUCGACCGGUCUGAUGAGUCUGUGACCAGACGAAACAGC [GUGACC] | 1.931 ± 0.012 | 1.74 ± 0.019
GCUGUCACCGGUGUAUUACCCUAGUGGUCGACCGGUCUGAUGAGUCUUCUUACAGACGAAACAGC [UCUUAC] | 1.94 ± 0.058 | 1.83 ± 0.044
GCUGUCACCGGUGUAUUACCCUAGUGGUCGACCGGUCUGAUGAGUCUCUAACCAGACGAAACAGC [CUAACC] | 1.91 ± 0.051 | 1.83 ± 0.038
GCUGUCACCGGUGUAUUACCCUAGUGGUCGACCGGUCUGAUGAGUCUGAUUCAAGACGAAACAGC [GAUUCA] | 1.961 ± 0.017 | 1.86 ± 0.041
GCUGUCACCGGUGUAUUACCCUAGUGGUCGACCGGUCUGAUGAGUCUUCUGUUAGACGAAACAGC [UCUGUU] | 1.98 ± 0.035 | 1.88 ± 0.034
GCUGUCACCGGUGUAUUACCCUAGUGGUCGACCGGUCUGAUGAGUCUCCACGAAGACGAAACAGC [CCACGA] | 1.95 ± 0.089 | 1.881 ± 0.0042
GCUGUCACCGGUGUAUUACCCUAGUGGUCGACCGGUCUGAUGAGUCUCAAACGAGACGAAACAGC [CAAACG] | 1.906 ± 0.0079 | 1.87 ± 0.06
GCUGUCACCGGUGUAUUACCCUAGUGGUCGACCGGUCUGAUGAGUCUUGCUCCAGACGAAACAGC [UGCUCC] | 1.972 ± 0.002 | 1.94 ± 0.037
GCUGUCACCGGUGUAUUACCCUAGUGGUCGACCGGUCUGAUGAGUCUUCGAAUAGACGAAACAGC [UCGAAU] | 1.87 ± 0.043 | 1.476 ± 0.0078
